Data: patent publication US20110117093A1 (published 2011)

Columns and labels:
TNF-alpha = molecular target: T1, TNF-alpha (human, UniProt P01375 77-233); experiment: phage ELISA
T1 construct: also called TNFα; Tumour Necrosis Factor-alpha

[1] = molecular target: T2, membrane-bound B Lymphocyte Stimulator on P388 plasma membranes (mouse, UniProt Q9WU72 1-309); experiment: phage competition ELISA
T2 construct: whole, on cells

[2] = molecular target: T3, B Lymphocyte Stimulator, human, soluble form (human, UniProt Q9Y275 134-285); experiment: phage ELISA
T3 construct: also called BLyS; immobilized B Lymphocyte Stimulator

[3] = molecular target: T4, biotinylated B Lymphocyte Stimulator (soluble form) (human, UniProt Q9Y275 134-285, biotinylated with NHS-biotin (20:1 biotin:protein)); experiment: phage scFv, IM9 receptor binding inhibition
T4 construct: The biotinylation protocol covers human or mouse protein; also called bio-B Lymphocyte Stimulator; free B Lymphocyte Stimulator
Method: Plates were washed three times in PBST and three times in PBS, tapped dry and 50 μl of streptavidin-Delfia (Wallac) was added to each well at 1:1000 dilution in the Manufacturer's assay buffer. The plates were then incubated at room temperature for 1 hour and washed six times in Delfia wash solution (Wallac). After tapping the plates dry, 100 μl per well of Delfia enhancement solution (Wallac) was added. The plates were gently tapped to encourage micelle formation, incubated at room temperature for 10 minutes, and fluorescence read on a Wallac 1420 workstation at […].
All of the unique phage scFvs from panel 2 were assessed for their ability to inhibit B Lymphocyte Stimulator binding to its cognate receptor on IM9 cells. The biotinylation of B Lymphocyte Stimulator, maintenance of IM9 cells and receptor binding inhibition assay were performed as described in Example 3.

[4] = molecular target: T5, biotinylated B Lymphocyte Stimulator (human, soluble form) (human, UniProt Q9Y275 134-285, NHS-biotin labelled at a molar ratio of 20:1 biotin:B Lymphocyte Stimulator); experiment: purified scFv; inhibition of biotinylated BLyS binding to IM9 cells
T5 construct: also called bio-B Lymphocyte Stimulator

T2 sequence (Q9WU72 whole entry): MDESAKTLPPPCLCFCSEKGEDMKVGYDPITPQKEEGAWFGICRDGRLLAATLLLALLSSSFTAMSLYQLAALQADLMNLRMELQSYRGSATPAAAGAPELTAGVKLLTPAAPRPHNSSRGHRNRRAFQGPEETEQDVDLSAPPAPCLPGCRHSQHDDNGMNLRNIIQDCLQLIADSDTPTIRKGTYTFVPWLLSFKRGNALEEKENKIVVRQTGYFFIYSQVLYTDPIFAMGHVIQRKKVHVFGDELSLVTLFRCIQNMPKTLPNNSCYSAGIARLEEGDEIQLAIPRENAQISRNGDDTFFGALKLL
T1 sequence (P01375 77-233 limits assumed): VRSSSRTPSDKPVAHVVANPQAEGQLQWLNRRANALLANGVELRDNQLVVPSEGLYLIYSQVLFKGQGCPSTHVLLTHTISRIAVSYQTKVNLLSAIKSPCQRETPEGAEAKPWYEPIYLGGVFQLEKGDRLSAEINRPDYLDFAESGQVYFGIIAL

B1: I018D07 (scFv)
scFv: GVQLVQSGPEVKKPGASVIVSCTASGYTFTSYGVSWVRQAPGQGLEWIGWISAHNGQTKYAEKFQGRVTMTRNTSISTAYMELSSLRSEDTAVYYCARDGSYDILTGYYIDNYMDVWGKGTMVTVSSGGGGSGGGGSGGGGSSELTQDPAVSVALGQTVRITCQGDSLRSYYTNWFQQKPGQAPLLVVYAKNKRPSGIPDRFSGSSSGNTASLTITGAQAEDEADYYCHSRDSSGNHVLFGGGTKLTVLG
binding result (TNF-alpha): no binding

B2: I079B04 (scFv)
scFv: EVQLVESGGGLVQPGGSLRLSCAASGFTFSDYAMSWVRQAPGKGLEWVSAISGSGGSTSYADSVKGRFTISRDNSKNTLYLQMNSLRAEDTAVYYCASLLSDYWGRGTTVTVSSGGGGSGGGGSGGGGSQSVLTQPASVSGSPGQSITISCTGTSSDVGGYNYVSWYQQHPGKAPKLMIYEGSKRPSGVSYRFSGSKSGNTASLTISGLQAEDEADYYCSSYTTRSTRVFGGGTKLTVLG
binding result [1]: binds

B3: I026C04-K (scFv)
scFv: QVQLVQSGAEVKKPGSSVKVSCRASGGSFNKHAISWVRQAPGRGLEWMGGILPMYGTANYAQKFQGRVTITADKLTNTVYMDLSRLRYEDTAVYYCARELGLSIVGATTGALDMWGKGTLVTVSSGGGGSGGGGSGGGGSAQSVLTQPPSVSAAPGQKVTISCSGSSSNIGNNYVSWYQQIPGTAPKLLIYENNKRPSGIPDRFSGSKSGASATLDITGLQTGDEADYYCGTWHSSQVVFGGGTKLTVLG
binding result [2]: binds

B4: I026C04-K (scFv)
scFv: QVQLVQSGAEVKKPGSSVKVSCRASGGSFNKHAISWVRQAPGRGLEWMGGILPMYGTANYAQKFQGRVTITADKLTNTVYMDLSRLRYEDTAVYYCARELGLSIVGATTGALDMWGKGTLVTVSSGGGGSGGGGSGGGGSAQSVLTQPPSVSAAPGQKVTISCSGSSSNIGNNYVSWYQQIPGTAPKLLIYENNKRPSGIPDRFSGSKSGASATLDITGLQTGDEADYYCGTWHSSQVVFGGGTKLTVLG
binding result [3]: binds

B5: I079F08 (scFv)
scFv: QMQLVQSGGGVVQPGRSLRLSCAASGFTFSSYGMHWVRQAPGKGLEWVAVISYDGSIKYYADSVKGRFTISRDNSKNTLYLQMNSLRAEDTAVYYCARYYYHSSGSDAFDIWGQGTLVTVPSGGGGSGGGGSGGGGSQSVLTQPPSASGTPGQRVTISCSGSSSNIGSNTVNWYQRLPGAAPQLLIYNNNQRPSGVPDRFSGSKSGTSASLAISGLQSEDEADYYCAAWDDSLNGWVFGGGTKLTVLG
binding result [1]: binds

B6: I068C06 (scFv)
scFv: EVQLVQSGAEVKKPGSSVKVSCKASGGTVSSRTISWVRQAPGQGLEWMGGSLPPSGAPIYAQKFQGRVAITADALTNTAFMELRSLKSDDTAVYYCARDQGRYLDLWGKGTLVTVSSGGGGSGGGGSGGGGSAQAVLTQPSSVSGAPGQRVTISCTGSRSNIGAGYDVHWYQQLPGTAPKLLIYGNSNRPSGVPDRFSGSKSGTSASLAITGLQADDEADYYCQSYDTSLRGLFGTGTKVTVLG
notes: also called I0068C06; 0068C06
IC50 [4]: 62 nM

B7: I080B01 (scFv)
scFv: QVQLVQSGAEVKKPGASVKVSCKASGYTFTNYYMHWVRQAPGQGLEWMGIINPRDVSTTYAQKFQGRATMTRDTSTSTVYMELNSLRSEDTAVYYCAREYSGYHYVEGGSYAMDVWGQGTMVTVSSGGGGSGGGGSGGGGSALSYVLTQPPSASGTPGQRVTITCSGSSSNIGNYYVNWYQQVSGTAPKLIIYRNNQRPSGVPDRFSGSKSGASASLAISGLRSEDEADYFCAAWDDSLREFVFGTGTKVTVLG
binding result [1]: binds
